From patent US20170260289A1 (Novo Nordisk, published 2017)
Changes are numbered by the printed parent chain.

Experiments:
[1] = molecular target: T1, TFPI (1-79) fragment, N-terminal and KPI-1 domain of TFPI with an N-terminally attached GSSGSSG tag (human, UniProt P10646 29-107); assay: SPR (Biacore T200), bispecific captured by anti-Fab kappa antibody, antigen as analyte, 1:1 Langmuir fit
T1 construct: also called tagged TFPI KPI-1/N-terminal; TFPI KPI-1
Experimental: (§1) Binding studies were performed on a Biacore T200 (GEHealthcare) that measures molecular interactions in real time through surface plasmon resonance. Experiments were run at 25° C. and the samples were stored at 15° C. in the sample compartment. The signal (RU, response units) reported by the Biacore is directly correlated to the mass on the individual sensor chip surfaces in four serial flow cells. Goat anti Fab Kappa Light Chain antibody (Nordic Biosite) was immobilized onto all four flow cells of a CM4 sensor chip according to the manufacturer's instructions. Capture of purified bispecific molecules was conducted by diluting the proteins into running buffer (10 mM Hepes 0.3 M NaCl, 5 mM CaCl₂, 0.05% surfactant P20, 10 mg/ml BSA, pH 7.4) and injected over flowcell 2, 3 or 4, creating a reference surface in flow cell 1 with only anti-Fab antibody immobilized. […] Binding of TFPI FL (SEQ ID NO: 1), TFPI (1-79), and TFPI KPI-2 proteins was conducted by injecting analyte (antigen) over all flow cells to allow for comparative analyses of binding to different captured bispecific molecules relative to binding to the reference surface. The TFPI (1-79) fragment spans the N-terminal and KPI-1 domain of TFPI with an N-terminally attached GSSGSSG tag (SEQ ID NO: 16). The TFPI KPI-2 fragment spans the KPI-2 domain of TFPI with a C-terminal HIS₆ tag (SEQ ID NO: 3). Antigens were diluted serially into running buffer, injected at 30 μl/min for 240 s and allowed to dissociate for 600 s or 14000 s. Prolonging the monitoring of dissociation phase for antigens that dissociates slowly with kd approaching 1E-5 s⁻¹ is crucial to get a robust value for the dissociation rate. The CM4 surface was regenerated after each injection cycle of analyte via injection of 10 mM Glycine, pH 2.1. This regeneration step removed the anti-TFPI bispecific molecule and any bound antigen from the immobilized capture antibody surface, and allowed for the subsequent binding of the next interaction sample pair.

[2] = molecular target: TFPI KPI-2 fragment spanning the KPI-2 domain of TFPI with a C-terminal HIS6 tag (human, UniProt P10646 119-178); assay: as above
Experimental: as §1

[3] = molecular target: T2, human TFPI alpha (full-length TFPIα) (human, UniProt P10646 29-304); assay: cell-based or functional assay
[4] = molecular target: T3, endogenous TFPI of human plasma (human, UniProt P10646 29-304, limits assumed); assay: cell-based or functional assay
[5] = molecular target: T2, human TFPI alpha (full-length TFPIα); assay: cell-based or functional assay; remark: listed apart in the source
[6] = molecular target: T2, human TFPI alpha (full-length TFPIα); assay: cell-based or functional assay; remark: listed apart in the source
[7] = molecular target: T3, endogenous TFPI of human plasma; assay: cell-based or functional assay; remark: listed apart in the source

B1: BiFab 9041 (bispecific antibody)
heavy 1: EVQLVESGGGLVKPGGSLRLSCAASGFTFSNYAMSWVRQTPEKRLEWVATISRSGSYSYFPDSVQGRFTISRDNAKNSLYLQMNSLRAEDTAVYYCARLGGYDEGDAMDSWGQGTTVTVSSASTKGPSVFPLAPCSRSTSESTAALGCLVKDYFPEPVTVSWNSGALTSGVHTFPAVLQSSGLYSLSSVVTVPSSSLGTKTYTCNVDHKPSNTKVDKRVESKYGPPC
light 1: DIVMTQTPLSLSVTPGQPASISCKSSQSLLESDGKTYLNWYLQKPGQSPQLLIYLVSILDSGVPDRFSGSGSGTDFTLKISRVEAEDVGVYYCLQATHFPQTFGGGTKVEIKRTVAAPSVFIFPPSDEQLKSGTASVVCLLNNFYPREAKVQWKVDNALQSGNSQESVTEQDSKDSTYSLSSTLTLSKADYEKHKVYACEVTHQGLSSPVTKSFNRGEC
heavy 2: QVQLKQSGPGLVQPSQSLSITCTVSGFSLTNYGVHWVRQSPGKGLEWLAVIWRGGSIDYNAAFMSRLSITKDNSKSQVFFKMNSLQADDTAIYYCAKNSHGNYVGYAMDYWGQGTSVTVSSASTKGPSVFPLAPCSRSTSESTAALGCLVKDYFPEPVTVSWNSGALTSGVHTFPAVLQSSGLYSLSSVVTVPSSSLGTKTYTCNVDHKPSNTKVDKRVESKYGPPC
light 2: GIVMTQSQKFMSTTVGDRVSITCKASQSVGPAVAWYQQKPGQSPKLLIYSASNRYTGVPDRFTGSGSGADFTLTISNLHSEDLADYFCQQYTSYPTFGGGTKLEIKRTVAAPSVFIFPPSDEQLKSGTASVVCLLNNFYPREAKVQWKVDNALQSGNSQESVTEQDSKDSTYSLSSTLTLSKADYEKHKVYACEVTHQGLSSPVTKSFNRGEC
modifications: C-terminal cysteine linked through the bis-maleimide linker to the C-terminal cysteine of the other Fab's heavy chain; C-terminal cysteine linked through 1,16-bis(2,5-pyrroledione-1-yl)-4,13-diaza-7,10-dioxa-3,14-dioxohexadecane to the C-terminal cysteine of the other Fab's heavy chain
notes: also called Fab 0088 conjugated to Fab 0295
[1]
  Kd: 0.9 nM
  koff: 0.0003 s⁻¹
  kon: 300000 M⁻¹ s⁻¹
[2]
  Kd: 0.01 nM
  koff: 6e-05 s⁻¹
  kon: 4e+06 M⁻¹ s⁻¹

B2: Fab 0088 (Fab, V domains shown)
VH: EVQLVESGGGLVKPGGSLRLSCAASGFTFSNYAMSWVRQTPEKRLEWVATISRSGSYSYFPDSVQGRFTISRDNAKNSLYLQMNSLRAEDTAVYYCARLGGYDEGDAMDSWGQGTTVTVSS
VL: DIVMTQTPLSLSVTPGQPASISCKSSQSLLESDGKTYLNWYLQKPGQSPQLLIYLVSILDSGVPDRFSGSGSGTDFTLKISRVEAEDVGVYYCLQATHFPQTFGGGTKVEIKR
[3]
  Peak (nM); thrombin generation, FVIII-neutralised plasma + 10 nM TFPIα; 10 nM Fab: 12.7 nM
  Peak (nM); thrombin generation, FVIII-neutralised plasma + 10 nM TFPIα; 50 nM Fab: 42.9 nM
  Peak (nM); thrombin generation, FVIII-neutralised plasma + 10 nM TFPIα; 100 nM Fab: 54.2 nM
  ttPeak (min); thrombin generation, FVIII-neutralised plasma + 10 nM TFPIα; 10 nM Fab: 29 min
  ttPeak (min); thrombin generation, FVIII-neutralised plasma + 10 nM TFPIα; 50 nM Fab: 21.2 min
  ttPeak (min); thrombin generation, FVIII-neutralised plasma + 10 nM TFPIα; 100 nM Fab: 20.2 min
[4]
  Peak (nM); thrombin generation, FVIII-neutralised plasma, endogenous TFPI; 10 nM Fab: 85.6 nM
  Peak (nM); thrombin generation, FVIII-neutralised plasma, endogenous TFPI; 50 nM Fab: 85.2 nM
  Peak (nM); thrombin generation, FVIII-neutralised plasma, endogenous TFPI; 100 nM Fab: 90.2 nM
  ttPeak (min); thrombin generation, FVIII-neutralised plasma, endogenous TFPI; 10 nM Fab: 11.5 min
  ttPeak (min); thrombin generation, FVIII-neutralised plasma, endogenous TFPI; 50 nM Fab: 11.6 min
  ttPeak (min); thrombin generation, FVIII-neutralised plasma, endogenous TFPI; 100 nM Fab: 11.6 min

B3: mAb 2021 (antibody, IgG4, V domains shown)
VH: B2 VH
VL: B2 VL
[5]
  Peak (nM); thrombin generation, FVIII-neutralised plasma + 20 nM TFPIα; 200 nM antibody: 17.2 nM
  ttPeak (min); thrombin generation, FVIII-neutralised plasma + 20 nM TFPIα; 200 nM antibody: 26.2 min

B4: mAb 0310 (antibody, human IgG1, kappa, V domains shown)
VH: B2 VH
VL: B2 VL
[6]
  Peak (nM); thrombin generation, FVIII-neutralized plasma + 10 nM TFPI alpha; 100.0 nM mAb: 28.3 nM
  ttPeak (min); thrombin generation, FVIII-neutralized plasma + 10 nM TFPI alpha; 100.0 nM mAb: 24.5 min
[7]
  Peak (nM); thrombin generation, FVIII-neutralized plasma, no TFPI added; 10.0 nM mAb: 118 nM
  ttPeak (min); thrombin generation, FVIII-neutralized plasma, no TFPI added; 10.0 nM mAb: 8.5 min

B5: Fab 0313 (Fab, V domains shown)
VH: B2 VH with T40A, E42G, R44G, A49S, F60Y, P61A, Q65K
VL: B2 VL
[3]
  Peak (nM); thrombin generation, FVIII-neutralised plasma + 10 nM TFPIα; 10 nM Fab: 0.4 nM
  Peak (nM); thrombin generation, FVIII-neutralised plasma + 10 nM TFPIα; 50 nM Fab: 0.8 nM
  Peak (nM); thrombin generation, FVIII-neutralised plasma + 10 nM TFPIα; 100 nM Fab: 1.4 nM
  ttPeak (min); thrombin generation, FVIII-neutralised plasma + 10 nM TFPIα; 10 nM Fab: 106 min
  ttPeak (min); thrombin generation, FVIII-neutralised plasma + 10 nM TFPIα; 50 nM Fab: 76.2 min
  ttPeak (min); thrombin generation, FVIII-neutralised plasma + 10 nM TFPIα; 100 nM Fab: 48.1 min
[4]
  Peak (nM); thrombin generation, FVIII-neutralised plasma, endogenous TFPI; 10 nM Fab: 10 nM
  Peak (nM); thrombin generation, FVIII-neutralised plasma, endogenous TFPI; 50 nM Fab: 19.8 nM
  Peak (nM); thrombin generation, FVIII-neutralised plasma, endogenous TFPI; 100 nM Fab: 29.6 nM
  ttPeak (min); thrombin generation, FVIII-neutralised plasma, endogenous TFPI; 10 nM Fab: 21 min
  ttPeak (min); thrombin generation, FVIII-neutralised plasma, endogenous TFPI; 50 nM Fab: 10.2 min
  ttPeak (min); thrombin generation, FVIII-neutralised plasma, endogenous TFPI; 100 nM Fab: 8.9 min

B6: mAb 1F91 (antibody, IgG1, V domains shown)
VH: DVQLQESGPGLVKPSQSLSLTCTVSGYSITSDYAWNWIRQFPGNKLEWMGYISYSGSTSYNPSLKSRISITRDTSKNQFFLQLNSVTTEDTATYYCARWAYDGPWGQGTLVTVSA
VL: QIVLSQSPALLSASPGEKVTMTCRASSSVSHMHWYQQKPGSSPKPWIYATSNLASGVPARFSGSGSGTSYSLTITRVEAEDAATYYCQQWSSNPFTFGSGTKLEIKR
[5]
  Peak (nM); thrombin generation, FVIII-neutralised plasma + 20 nM TFPIα; 200 nM antibody: 0 nM

B7: Fab 0295 (Fab, V domains shown)
VH: QVQLKQSGPGLVQPSQSLSITCTVSGFSLTNYGVHWVRQSPGKGLEWLAVIWRGGSIDYNAAFMSRLSITKDNSKSQVFFKMNSLQADDTAIYYCAKNSHGNYVGYAMDYWGQGTSVTVSS
VL: GIVMTQSQKFMSTTVGDRVSITCKASQSVGPAVAWYQQKPGQSPKLLIYSASNRYTGVPDRFTGSGSGADFTLTISNLHSEDLADYFCQQYTSYPTFGGGTKLEIKR
[3]
  Peak (nM); thrombin generation, FVIII-neutralised plasma + 10 nM TFPIα; 10 nM Fab: 10.9 nM
  Peak (nM); thrombin generation, FVIII-neutralised plasma + 10 nM TFPIα; 50 nM Fab: 31.8 nM
  Peak (nM); thrombin generation, FVIII-neutralised plasma + 10 nM TFPIα; 100 nM Fab: 33.8 nM
  ttPeak (min); thrombin generation, FVIII-neutralised plasma + 10 nM TFPIα; 10 nM Fab: 25.2 min
  ttPeak (min); thrombin generation, FVIII-neutralised plasma + 10 nM TFPIα; 50 nM Fab: 11.5 min
  ttPeak (min); thrombin generation, FVIII-neutralised plasma + 10 nM TFPIα; 100 nM Fab: 10.8 min
[4]
  Peak (nM); thrombin generation, FVIII-neutralised plasma, endogenous TFPI; 10 nM Fab: 94 nM
  Peak (nM); thrombin generation, FVIII-neutralised plasma, endogenous TFPI; 50 nM Fab: 101 nM
  Peak (nM); thrombin generation, FVIII-neutralised plasma, endogenous TFPI; 100 nM Fab: 103 nM
  ttPeak (min); thrombin generation, FVIII-neutralised plasma, endogenous TFPI; 10 nM Fab: 8.4 min
  ttPeak (min); thrombin generation, FVIII-neutralised plasma, endogenous TFPI; 50 nM Fab: 8.2 min
  ttPeak (min); thrombin generation, FVIII-neutralised plasma, endogenous TFPI; 100 nM Fab: 8.2 min

B8: mAb 2F22 (antibody, IgG1, V domains shown)
VH: B7 VH
VL: B7 VL
[5]
  Peak (nM); thrombin generation, FVIII-neutralised plasma + 20 nM TFPIα; 200 nM antibody: 23.7 nM
  ttPeak (min); thrombin generation, FVIII-neutralised plasma + 20 nM TFPIα; 200 nM antibody: 13.6 min

B9: mAb 0336 (antibody, human IgG1, kappa, V domains shown)
VH: B7 VH
VL: B7 VL
[6]
  Peak (nM); thrombin generation, FVIII-neutralized plasma + 10 nM TFPI alpha; 100.0 nM mAb: 44.9 nM
  ttPeak (min); thrombin generation, FVIII-neutralized plasma + 10 nM TFPI alpha; 100.0 nM mAb: 11.7 min
[7]
  Peak (nM); thrombin generation, FVIII-neutralized plasma, no TFPI added; 10.0 nM mAb: 140 nM
  ttPeak (min); thrombin generation, FVIII-neutralized plasma, no TFPI added; 10.0 nM mAb: 7.8 min

B10: mAb 2F3 (antibody, IgG1, V domains shown)
VH: B7 VH with T30S, N31S, A49G, I57T, Y59F, L67V, I69F
VL: DIVMTQSQKFMSTTVGDKVSIPCKASENVGAAVAWYQQKPGQSPTLLIYSASNRYTGIPDRFTGSGSGTDFTLTIRTVQSEDLADYFCQQYTNYPTFGGGTKLEIKR
[5]
  Peak (nM); thrombin generation, FVIII-neutralised plasma + 20 nM TFPIα; 200 nM antibody: 20.9 nM
  ttPeak (min); thrombin generation, FVIII-neutralised plasma + 20 nM TFPIα; 200 nM antibody: 14.6 min
